Here are results for 11 molecules from US20220403048A1, “BINDING MOLECULES TO ARGINASE II [ARG2]” (Cancer Research Technology Limited, priority 2019, published 2022).

Where a chain is given by its changes, count along the chain named.

The chains are these.
B1: C0021032 Fab (antibody, V domains shown)
VH: EVQLLESGGGLVQPGGSLRLSCAASGFTFSSYAMSWVRQAPGKGLEWVSAYGYGIGSTYYADSVKGRFTISRDNSKNTLYLQMNSLRAEDTAVYYCARLRADLGLYMDLWGRGTLVTVSS
VL: QSVLTQPPSVSAAPGQKVTISCSGSSSNIGNHYVSWYQQLPGTAPKLLIYDNSERPSGIPDRFSGSKSGTSATLGITGLQTGDEADYYCGTWDSSLSALVFGGGTKLTVL
B2: C0021128: anti-ARG2 antibody, VH SEQ ID NO: 162, VL SEQ ID NO: 167 (antibody, listed as Homo sapiens, V domains shown)
VH: EVQLLESGGGLVQPGGSLRLSCAASGFTFQYEVAAWVRQAPGKGLEWVSAISGPIPKGYYADSVKGRFTISRDNSKNTLYLQMNSLRAEDTAVYYCARLRADLGLYMDLWGRGTLVTVSS
VL: B1 VL with S53A, E54I, R55E, P56S, E84G, S95N
modifications: C0021128
B3: C0021096 Fab (antibody, V domains shown)
VH: EVQLLESGGGLVQPGGSLRLSCAASGFTFSSYAMSWVRQAPGKGLEWVSAISGYSGYYADSVKGRFTISRDNSKNTLYLQMNSLRAEDTAVYYCARLRADLGLYMDLWGRGTLVTVSS
VL: B1 VL with D51N, N52T, S53E, E54R, P56M
B4: C0021097 Fab (antibody, V domains shown)
VH: B1 VH with Y51I, G52S, G54H, I55P
VL: B1 VL with D51N, N52T, S53F, E54A
B5: C0021141 Fab (antibody, V domains shown)
VH: B1 VH with S30Y, S31P, Y32D, A33P, M34Q, S35G
VL: B1 VL with K17E, G30D
B6: C0021118 Fab (antibody, V domains shown)
VH: B1 VH with Y51S, G52L, Y53T, G54N, I55P
VL: B1 VL with G90A, W92Y, S94T, S95N
B7: C0021021 Fab (antibody, V domains shown)
VH: B1 VH with A50S, Y51I, G52L, Y53F, G54S, I55P
VL: B1 VL
B8: C0021142 Fab (antibody, V domains shown)
VH: B1 VH with Y51H, G52T, Y53H, G54S, I55P
VL: B1 VL
B9: C0021101 Fab (antibody, V domains shown)
VH: B3 VH with L45P, Y54F, G56P
VL: B1 VL with D51N, S53R, E54S, R55P, P56T
B10: C0021144: anti-ARG2 antibody, VH SEQ ID NO: 252, VL SEQ ID NO: 257 (antibody, listed as Homo sapiens, V domains shown)
VH: B2 VH with Q30R, E32D, V33Y, A34H, A35V, P54S, I55G, P56G, K57S, G58T
VL: QSVLTQPPSVSAAPGQKVTVSCSGSSSNIGNHHVSWYQQLPGTAPKLLIYDTTVLSSGVPDRFSGSKSGTSATLGITGLQTGDEADYYCGTWDELTSNLVFGGGTKLTVL
modifications: C0021144
B11: C0021155: anti-ARG2 antibody, VH SEQ ID NO: 262, VL SEQ ID NO: 267 (antibody, listed as Homo sapiens, V domains shown)
VH: EVQLLESGGGLVQPGGSLRLSCEASGFTFRYDYHVWVRQAPGKGLEWVSAISGSGGSTYYADPVKGRFTISRDNSKNTLYLQMNSLRAEDTAVYYCARLRADLGLYMDLWGRGTLVTVSS
VL: B10 VL with Q1R, V20I, H33Y, V59I, K106R
modifications: C0021155

The target of one test is T1, human ARG2 (Homo sapiens, UniProt P78540, E275H/R327K).
T1 construct: His10 (after a GGG linker) (C); made in house; host or cells: E. coli BL21 (DE3)
T1 sequence (P78540 23-354 E275H/R327K): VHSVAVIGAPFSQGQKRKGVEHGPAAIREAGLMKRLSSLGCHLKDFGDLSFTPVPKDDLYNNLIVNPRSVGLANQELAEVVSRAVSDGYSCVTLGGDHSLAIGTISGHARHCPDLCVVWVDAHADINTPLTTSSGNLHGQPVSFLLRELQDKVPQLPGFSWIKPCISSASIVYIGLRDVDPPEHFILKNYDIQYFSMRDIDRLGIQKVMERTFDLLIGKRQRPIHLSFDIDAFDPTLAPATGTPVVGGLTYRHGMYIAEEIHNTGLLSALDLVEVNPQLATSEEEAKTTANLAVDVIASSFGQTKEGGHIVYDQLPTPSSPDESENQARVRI
Kind of test: Bio-Layer Interferometry (OctetRED) binding kinetics, human ARG2. The conditions noted are these: Fab as analyte; streptavidin capture; analyte 1.8 to 120 nM; affinity-matured antibodies. An excerpt:
(§1) The OctetRED (Pall ForteBio) instrument was used to assess the kinetic parameters of the interactions between C0020187 and recombinantly produced human ARG2, cynomolgus ARG2 and human ARG1. The Octet biosensor uses an optical analytical technique that analyses the interference pattern of white light reflected from two surfaces: a layer of immobilised protein on the sensor tip, and an internal reference layer. Any changes in binding at the biosensor tip result in a shift in interference pattern, which can be measured in real time. Molecules associating with or dissociating from ligands at the biosensor tip shift the interference pattern and generate a response on the Octet system which is recorded by the acquisition software.
(§2) Typically, a defined concentration of the analyte species is brought into contact with the coupled ligand and any binding is detected as an increased in signal (association phase). This is followed by a period of buffer rinse, during which dissociation of the analyte species from the surface immobilised ligand can be observed as a decrease in signal (dissociation phase). Repetition of this with a range of analyte concentrations provides data for the analysis of binding kinetics.
(§3) An Octet Kinetics Buffer (PBS containing 0.01% BSA and 0.002% Tween20) is typically used as the diluent buffer for the analyte samples and as the flow buffer during the dissociation phase. The experimental data is recorded over time as shift in interference pattern (nm) over time, which is directly proportional to the optical thickness at the biosensor tip, which in turn is an approximate measure of the mass of analyte bound. The proprietary Octet Data Analysis software package can then be used to process data and fit binding models to the data sets. Returned association (ka, M^−1 s^−1) and dissociation (kd, s^−1) rate constants allow calculation of dissociation (KD, M) affinity constants.
(§4) The affinity of binding between the Fab of C0020187 and human ARG2, cynomolgus ARG2 and human ARG1 was estimated using assays in which the biotinylated ARG antigen was captured on a streptavidin sensor tip. A fresh sensor tip was used for each measurement and no regeneration was used. A series of dilutions of the C0020187 Fab (3.25-240 nM) were individually placed in contact with the ligand surface for a sufficient amount of time to observe sensorgrams that could be fitted to an appropriate binding model with confidence (typically 5 minutes), followed by an appropriate length of dissociation time (typically 10 minutes). Blank reference (0 nM Fab) data were subtracted from each dataset to reduce the impact of any buffer artefacts or non-specific binding effects. An appropriate binding model was then fitted simultaneously to the data from each analyte titration using the Octet Evaluation software.
(§5) Example results for C0020187 are shown in Table 9, showing the association rate constants (ka), dissociation rate constants (kd) and dissociation constants (KD). These parameters were derived from a 1:1 binding fit to the data.
(§6) The affinities of the affinity-matured antibodies to human ARG2 were measured on the OctetRED system as described in section 1.15 using the streptavidin capture method. Typically, an analyte titration range of 1.8 to 120 nM was used.
The affinities of the second-generation antibodies to human ARG2 were measured on the OctetRED system. A screening assay which stably captures His-tagged ARG2 as the ligand on an anti-His surface was utilised to screen the second-generation candidates as Fabs at an analyte range of 1.8 to 120 nM, with an association time of 5 minutes and a dissociation time of 10 minutes. Sensors were regenerated using 10 mM glycine pH 1.5 after each cycle. Based on this assay, six candidates with estimated affinities in the sub-nanomolar range were identified, and they were further profiled using an extended assay which is more suitable for antibodies of high affinities. […]
Molecule B1 returned a ka of 427000 M⁻¹ s⁻¹ and a kd of 0.00228 s⁻¹.
In the case of B2, the ka is 266000 M⁻¹ s⁻¹ and the kd came out at 0.000674 s⁻¹.
B3 gave a ka of 441000 M⁻¹ s⁻¹ and a kd of 0.00154 s⁻¹.
For B4, the ka amounted to 295000 M⁻¹ s⁻¹ and the kd is 0.00146 s⁻¹.
The matching figures for B5: 326000 M⁻¹ s⁻¹ and 0.00108 s⁻¹.
For B6, in that order: 139000 M⁻¹ s⁻¹ and 0.00114 s⁻¹.
B7 showed a ka of 473000 M⁻¹ s⁻¹ and a kd of 0.002 s⁻¹.
Regarding B8, the ka is 399000 M⁻¹ s⁻¹ and the kd stood at 0.0011 s⁻¹.
The matching figures for B9: 314000 M⁻¹ s⁻¹ and 0.00107 s⁻¹.

The same test, now with this note: second-generation Fab; extended assay: association 10 min, dissociation 40 min, 0.47 to 30 nM, streptavidin surface with bio-ARG2.
In the case of B10, the ka was 195000 M⁻¹ s⁻¹ and the kd was 6.59e-05 s⁻¹.
In the case of B11, the ka stood at 159000 M⁻¹ s⁻¹ and the kd was found to be 5.67e-05 s⁻¹.

The target of a further test is T2, human ARG1 (Homo sapiens, UniProt P05089).
T2 construct: Avi tag (N); His10 (after a GGG linker) (C); made in house; host or cells: E. coli BL21 (DE3)
T2 sequence (P05089 with tags, fused parts or gaps): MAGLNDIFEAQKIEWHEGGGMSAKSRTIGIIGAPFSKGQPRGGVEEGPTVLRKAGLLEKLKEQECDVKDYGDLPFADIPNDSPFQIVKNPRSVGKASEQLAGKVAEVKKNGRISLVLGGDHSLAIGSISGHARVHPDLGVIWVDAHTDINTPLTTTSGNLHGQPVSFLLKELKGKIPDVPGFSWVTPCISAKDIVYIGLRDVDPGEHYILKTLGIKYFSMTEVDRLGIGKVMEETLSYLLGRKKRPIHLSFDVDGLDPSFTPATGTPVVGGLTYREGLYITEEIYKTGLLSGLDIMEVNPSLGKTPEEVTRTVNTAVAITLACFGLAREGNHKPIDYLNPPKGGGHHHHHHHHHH
Nature of the test: Bio-Layer Interferometry (OctetRED) binding, human ARG1. The conditions noted are these: Fab analyte up to 120 nM, screening assay on anti-His surface. The protocol:
as §4
The binding of affinity-matured antibodies to human ARG1 was also tested on the OctetRED system using a screening assay which stably captures […] as the ligand on an anti-His surface. The Fabs were typically tested in an analyte range of 1.8 to 120 nM, with an association time of 5 minutes and a dissociation time of 10 minutes. Sensors were regenerated using 10 mM glycine pH 1.5 after each cycle.
Binding of the second-generation antibodies to human ARG was also tested on the OctetRED system using a screening assay which stably captures […] as the ligand on an anti-His surface. The Fabs were tested as analyte up to 120 nM, with an association time of 5 minutes and a dissociation time of 10 minutes. Sensors were regenerated using 10 mM glycine pH 1.5 after each cycle.
As for B10, the “Results, binding to human ARG1 (BLI)” value is listed as “No binding observed”.
Regarding B11, the “Results, binding to human ARG1 (BLI)” value is “No binding observed”.
For the molecule B2, the “Results, binding to human ARG1 (BLI)” value is reported as “No binding observed”.

The next test relates to cynomolgus ARG2. Nature of the test: Bio-Layer Interferometry (OctetRED) binding kinetics, cynomolgus ARG2. The conditions noted are these: Fab as analyte; cyno ARG2 ligand; affinity-matured antibodies.
cynomolgus ARG2, sequence (as listed by the source): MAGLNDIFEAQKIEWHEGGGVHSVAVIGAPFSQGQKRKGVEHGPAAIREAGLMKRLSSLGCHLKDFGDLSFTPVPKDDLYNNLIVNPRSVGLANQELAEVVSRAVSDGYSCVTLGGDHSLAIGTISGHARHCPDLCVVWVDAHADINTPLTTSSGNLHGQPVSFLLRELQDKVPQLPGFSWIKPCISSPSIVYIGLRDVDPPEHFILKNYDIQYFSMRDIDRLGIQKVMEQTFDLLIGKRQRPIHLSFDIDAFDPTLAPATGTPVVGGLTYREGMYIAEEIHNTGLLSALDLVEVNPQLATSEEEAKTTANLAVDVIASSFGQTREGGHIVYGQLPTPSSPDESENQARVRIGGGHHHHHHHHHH
Description: as §1, §2, §3, §4, §5, §6
The affinities of some of these antibodies to cynomolgus ARG2 were determined using the same assay, and the derived kinetic parameters are shown in Table 21.
B2 returned a ka of 437000 M⁻¹ s⁻¹ and a kd of 0.000771 s⁻¹.
